Data from US20120121581A1 (XOMA TECHNOLOGY, published 2012).

B1: ABT01 (antibody, V domains shown)
VH: QVQLQQSGGGLVQPGGSLRLSCAASGFTFKYDYMYWIRQAPGKGLEWVATISDGGSYTYYSDSVEGRFTTSRDNSKNTLYLQMNSLRAEDTAIYYCSRYRYDDAMDYWGQGTLVTVSS
VL: EIVLTQSPATLSLSPGERATISCRASESVDSYGHSFMQWYQQKPGQAPRLLIYRASNLEPGIPARFSGSGSGTDFTLTISSLEPEDFAVYYCQQGNEVPFTFGQGTKVEIK
B2: ABT03 (antibody, V domains shown)
VH: QVQLQQSGGGLVQPGGSLRLSCAASGFTFSNYAMTWVRQAPGKGLEWVSSISVGGSDTYYADSVKGRFTVSRDNSKNTLLLQMNSLRAEDTAVYYCAKVRTKYCSSLSCFAGFDSWGQGTRVTVSS
VL: DVVMTQSPSSLSASVGDRVTITCRASQSISSYLHWYQQKPGKAPTLLISDASSSQSGVPSRFSGSRFGTDFTLTISSLQPEDFATYYCQQSYSTRALTFGGGTKVEIK
B3: ABT02 (antibody, V domains shown)
VH: QVQLVQSGGGVVHPGRSLKLSCAGSGFTFSDYDMHWVRQAPGKGLEWVAVMWFDGTEKYSAESVKGRFTISRDNSKNTLFLQMNSLRADDTAVYYCAREPDWLLWGDRGALDVWGQGTTVTVSS
VL: DIVMTQSPSTLSASVGDRVTITCWASQSISSRLAWYQQKPGKAPKLLMYEATSLGSGVPSRFSGSGSGTEFTLTISSLQPDDFAAYYCQHYDTYPYTFGQGTKLEIK

Assays:
Assay in all cases: ELISA, toxin domain coated on plate
[1] = molecular target: BoNT/A light-chain heavy-chain N-terminus (LCHN) domain (UniProt P0DPI0 1-870)
[2] = molecular target: BoNT/A heavy-chain C-terminus (HCC) domain (UniProt P0DPI0 1093-1296)
[3] = molecular target: BoNT/A heavy-chain N-terminus (HCN) domain (UniProt P0DPI0 871-1092)
Chain of BoNT/A heavy-chain N-terminus (HCN) domain (P0DPI0 871-1092 limits assumed): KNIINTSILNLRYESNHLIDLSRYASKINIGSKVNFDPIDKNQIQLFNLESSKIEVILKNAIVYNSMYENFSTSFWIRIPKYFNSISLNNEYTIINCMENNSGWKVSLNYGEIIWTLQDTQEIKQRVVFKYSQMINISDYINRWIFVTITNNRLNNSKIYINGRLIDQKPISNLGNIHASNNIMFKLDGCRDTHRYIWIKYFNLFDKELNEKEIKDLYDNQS

Chain of BoNT/A light-chain heavy-chain N-terminus (LCHN) domain (P0DPI0 1-870 limits assumed): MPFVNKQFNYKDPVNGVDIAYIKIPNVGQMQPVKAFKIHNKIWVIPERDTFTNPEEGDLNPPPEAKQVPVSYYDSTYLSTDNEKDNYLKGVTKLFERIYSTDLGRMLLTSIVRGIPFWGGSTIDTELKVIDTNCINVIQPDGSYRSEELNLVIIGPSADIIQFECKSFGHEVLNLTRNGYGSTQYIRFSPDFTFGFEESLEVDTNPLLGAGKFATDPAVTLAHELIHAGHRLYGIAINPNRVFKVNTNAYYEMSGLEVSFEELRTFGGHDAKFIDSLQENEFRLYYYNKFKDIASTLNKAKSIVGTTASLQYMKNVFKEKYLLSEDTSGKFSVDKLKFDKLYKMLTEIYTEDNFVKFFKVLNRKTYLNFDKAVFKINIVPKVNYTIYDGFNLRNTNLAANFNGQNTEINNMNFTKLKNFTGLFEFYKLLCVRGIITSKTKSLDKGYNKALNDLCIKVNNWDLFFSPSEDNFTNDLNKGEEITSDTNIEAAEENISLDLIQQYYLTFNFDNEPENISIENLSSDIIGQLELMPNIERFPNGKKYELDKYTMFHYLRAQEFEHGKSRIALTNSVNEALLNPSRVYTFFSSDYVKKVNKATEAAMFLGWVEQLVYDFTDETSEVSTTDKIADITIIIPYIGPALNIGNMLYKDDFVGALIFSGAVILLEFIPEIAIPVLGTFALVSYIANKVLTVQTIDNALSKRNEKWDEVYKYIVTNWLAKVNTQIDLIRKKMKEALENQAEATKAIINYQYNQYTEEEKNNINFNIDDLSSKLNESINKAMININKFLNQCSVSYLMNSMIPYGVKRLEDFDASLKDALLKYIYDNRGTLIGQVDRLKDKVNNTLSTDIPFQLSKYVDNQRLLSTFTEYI
Chain of BoNT/A heavy-chain C-terminus (HCC) domain (P0DPI0 1093-1296 limits assumed): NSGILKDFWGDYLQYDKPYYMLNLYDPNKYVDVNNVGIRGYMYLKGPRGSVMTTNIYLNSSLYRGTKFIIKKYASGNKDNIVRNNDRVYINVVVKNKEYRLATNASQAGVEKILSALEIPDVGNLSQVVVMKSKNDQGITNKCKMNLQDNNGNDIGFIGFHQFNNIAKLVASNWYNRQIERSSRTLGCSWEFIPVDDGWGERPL

Binder | binding result [1] | binding result [2] | binding result [3]
B1 | no binding | no binding | –
B2 | – | no binding | no binding
B3 | no binding | – | no binding
